According to the nanobody polyreactivity screen of Harvey et al. (2022):

Test: yeast display, Sf9 membrane polyspecificity reagent, FACS + sequencing; frameworks hold sequencing errors
In short: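 Galactose-induced (36–48 hours) yeast carrying a synthetic nanobody display library were exposed to 10% biotinylated, detergent-solubilized Sf9 membrane reagent at 4 °C for 1 hour. FACS followed streptavidin microbead enrichment, using low and high (top ~1%) gates for expression (anti-HA) and reagent binding (streptavidin). Colony PCR, MiSeq 2 × 250 sequencing and CDR-length filtering followed. Labels for polyreactivity reflect the gate of origin.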

Row | Sequence | polyreactivity (PSR sort gate)
1 | QVQLVESGGGLVQAGGSLRLSCAASGSIFYRYAMGWYSQAPGKERELVAAINNGGGRTYADSVKGRCTISRDNAKNTVYLQMNSLKPEDTAVYYCAARYYRDYRWYTYAYDYWGQGTQVNVSS | high polyreactivity
2 | QVQLVESGGGLVQAGGSLRLSCAASGSIFYSNAMGWYRQAPGKEREFVAAISAGGGSTYYADSVKGRFTISRDNAKNPVYLQMNSLKPEDTAVYYCAAQQYKIIYPYDYWGQGTQVTVSS | low polyreactivity
3 | QVQLVESGGGLVQAGGSLRLSCAASGSIFYSNAMGWYRQAPGKERELVAAISWSGGSTYYADSVKGRFTISRDYAKNTVYLQMNSLKPEDTAVYYCAASYDIYYYDAASLDDYDYWGQGTQVTVSS | low polyreactivity
4 | QVQLVESGGGLVQAGGSLRLSCAASGSIFYSNAMGWYRQAPGKERELVAAITSGGRTYYADSVKGRFTISRDNAKNTVYLQMNSLKPEDTAVFYCAARYYLGSWSDYYYWGQGTQVTVSS | high polyreactivity
5 | QVQLVESGGGLVQAGGSLRLSCAASGSIFYSNAMGWYRQAPGKERELVAAITSSGGITRYADSVKGRFTISRDNAKNTVYLQMNSLKPEDTAVYYCAKDIRVYASDYWGQGTQVTVSS | low polyreactivity
6 | QVQLVESGGGLVQAGGSLRLSCAASGSIFYSNAMGWYRQAPGKERELVAAITWRGGSTYYADSVKGRFTISRDNAKYTVYLQLNSLKPEDTAVYYCNADGSARTPYYYRWYRYGYWGQGTQVTVSS | high polyreactivity
7 | QVQLVESGGGLVQAGGSLRLSCAASGSIFYSNFMGWYRQAPGKERELVARITDAGSTNYADSVKGRFTISRDNAKNSVYLQMNSLKPEDTAVYYCNARLVIYTYDYWGQGTQVTVSS | low polyreactivity
8 | QVQLVESGGGLVQAGGSLRLSCAASGSIFYSYAMGWYRQAPGKERELVAAINWSGGSTYYADSVKGRFTISRDNAKNTVYLQMKSLKPEDTAVYYCAADYGWGPIYDYWGQGTQVTVSS | low polyreactivity
9 | QVQLVESGGGLVQAGGSLRLSCAASGSIFYSYAMGWYRQAPGKERELVAAISFSGGSTYYADSVKGRFTISRDNAKNTVYLHMNSLKPEDPAVYYCNTLSADTFDYWGQGTQVTVSS | low polyreactivity
10 | QVQLVESGGGLVQAGGSLRLSCAASGSIFYSYAMGWYRQAPGKERELVAAISTTGGSTYYADSVKGRFTISRDNAKNTVYLQMNSLKPEDTAVYYCAREQGFRGDWYDYWGQGTQVTVSS | high polyreactivity
11 | QVQLVESGGGLVQAGGSLRLSCAASGSIFYSYAMGWYRQAPGKERELVAAITSRTGNTYYADSVKGRFTISRDNAKNTVYLQMNSLKPEDTAVYYCAAKLVNALLHYRIWNHNNYWGQGTQVSVSS | low polyreactivity
12 | QVQLVESGGGLVQAGGSLRLSCAASGSIFYSYAMGWYRQAPGKERELVARITKRGGRTYYADSVKGRFTISRDNAKNTVYLQMNSLKPEDTAVYYCAATTGHRTYRYYYWGQGTQVTVSS | high polyreactivity
13 | QVQLVESGGGLVQAGGSLRLSCAASGSIFYSYAMGWYRQAPGKERELVASINWSGASTYYADSVKGRFTISRDYAKNTVYLQMNSLKPEDTAVYYCAADWWGYDGRYDYWGQGTQVTVSS | high polyreactivity
14 | QVQLVESGGGLVQAGGSLRLSCAASGSIFYSYAMGWYRQAPGKERELVAVITRGGSTNYADSVKGRFTISRDNAKNTVYLQLNSLKPEDTAVYYCNKDRYGKVFRYPPYYRSSPYDYWGQGTQVTVSS | high polyreactivity
15 | QVQLVESGGGLVQAGGSLRLSCAASGSIFYSYVMGWYRQAPGKERELVAAISRNGQSTYYADSVKGRFTISRDNAKNTVYLQMNSLKPEDTAVYYCAARSRDKYDYWGQGTQVTVSS | high polyreactivity
16 | QVQLVESGGGLVQAGGSLRLSCAASGSIFYTNAMGWYRQATGKERELVAVITASGGSTYYADSVKGRFTISRDNAKNTVYLQMNSLKPEDTAVYYCAADPVFNYDYWGQGTQVTVSS | low polyreactivity
17 | QVQLVESGGGLVQAGGSLRLSCAASGSIFYTYAMGWYRPAPGKEREFVAAITSSGGSTYYADSVKGRFTISRDNAKNTVYLQMNSLKPEDTAVYYCAARTPHYGKCYDIFDYWGQGTQVTVSS | low polyreactivity
18 | QVQLVESGGGLVQAGGSLRLSCAASGSIFYTYAMGWYRQAPGKERELVAAISGTGTSTYYADSVKGRFTISRDHAKNTVYLQMNSLKPEDTAVYFCATHGGAAWGRYYWYYGYWGQGTQVTVSS | low polyreactivity
19 | QVQLVESGGGLVQAGGSLRLSCAASGSIFYTYAMGWYRQAPGKERELVAAITYSGGSTYYADSVKGRFTISRDNAKNTVYLQMNSLKPEDTAVYYCAAYVIPGLGAEYGYWGQGTQVTVSS | low polyreactivity
20 | QVQLVESGGGLVQAGGSLRLSCAASGSIFYTYVMGWYRQAPGKVREFVAAISKSGGSTYYADSVKGRFTISRDNAKNPVYLQMNSLIPEVTAVYYCAAYPIVSIQRRARGNSWGQGTQVTVSS | high polyreactivity
21 | QVQLVESGGGLVQAGGSLRLSCAASGSIFYTYVMGWYRQAPRKERELVAAITRAGNTYYADSVKGRFTISRDNAKKTVYLQMNILKPEDTAVYYCAAGRYKPFTYHFDYWGQGTQVTVSS | high polyreactivity
22 | QVQLVESGGGLVQAGGSLRLSCAASGSIFYVKTMGWSRQAPGKEREFLAAINYSGDSTYADSVKGRFTISRDNAKNTVYLQMIRLKPEDTAVYYCNAVPVRYLRGRNGHDYWGQGTQVTVSS | high polyreactivity

Row | Sequence | polyreactivity (PSR sort gate)
23 | QVQLVESGGGLVQAGGSLRLSCAASGSIFYVYAMGGYRQAPGKERELVAAITSGSSTNYADSVKGRFTISRDNAKNTVYLQMNSLKPEDTAVYYCAASFRDDFPQRLDYWGQGTQVTVSS | low polyreactivity
24 | QVQLVESGGGLVQAGGSLRLSCAASGSIFYVYAMGWYRQAPGKERELVAAISRGGGSTSYADSVKGRFTISRDNAKNTVYLQMNSLKPEDTAVYYCNAYTYYHANHEQGFGYWGQGTQVTVSS | low polyreactivity
25 | QVQLVESGGGLVQAGGSLRLSCAASGSIFYVYAMGWYRQAPGKERELVATIDWSGGSTYYADSVKGRFTISRDNAKNTVYLQMNSLKPEDTAVYYCAAPTEQDPFAPVAFYRYDYWGQGTQVTLSS | low polyreactivity
26 | QVQLVESGGGLVQAGGSLRLSCAASGSIFYVYAMGWYRQAPGKEREMVAAINTSGGSTFYADSVKGRFTISRDNAKNTVYLQMNSLKPEETAVYYCAAERYRYRSTDTMVYWGQGTQVTVSS | low polyreactivity
27 | QVQLVESGGGLVQAGGSLRLSCAASGSIFYVYAMGWYRQAPGNERELVAAINTSGGSTFYADSVKGRFTISRDNAKNTVYLQINSLKPEDTAVYYCAAERYRYRSTDTMGYWGQGTQVTVSS | low polyreactivity
28 | QVQLVESGGGLVQAGGSLRLSCAASGSIFYWYAMGWYRQAPGKERELVAAIDISDDTYYADSVKGRFTISRDNAKNTVYLQMNSLKPEDTAFYYCAARNTRWFYEYDWGQGTQVTVSS | high polyreactivity
29 | QVQLVESGGGLVQAGGSLRLSCAASGSIFYWYVMVWYRQAPGKERELVATISDSTNYADSVKGRFTISRDNAKNTVYLQMNSLKPEDTAVYYCNARVRGLGKYESWGQGTQVTVSS | low polyreactivity
30 | QVQLVESGGGLVQAGGSLRLSCAASGSIFYYAMGWYRQAPGKERELVAAITWRGGRTYYADSVKGRFTISRDNAKNTVYLQMNSLKPEDTAVYDFNAVAPGKYNLWGQGTQVTVSS | high polyreactivity
31 | QVQLVESGGGLVQAGGSLRLSCAASGSIFYYGMGWYRQAPGKERELVAAITRGGSTYYADSVKGRFTISRDNAKNTVYLQMNSLKPEDTAVYYCATGPLVYYSARYSSYVYPYDYWGQGTQVTVSS | low polyreactivity
32 | QVQLVESGGGLVQAGGSLRLSCAASGSIFYYNAMGLYIQAPGKERELVAAITSSGGSTYYADSVKGRFTISRDNAKNTVYLQMNSLNPEDTAVYYCNNDTLVYGYVQDSEYWGQGTQVTVSS | low polyreactivity
33 | QVQLVESGGGLVQAGGSLRLSCAASGSIFYYNAMGWYRQAPGKERELVAAITSGDSTNYADSVKGRFTISRDNAKNPVYLQMNSLKPEDTAVYYCAADYLAALTYYRTYDYWGQGTQVTVSS | low polyreactivity
34 | QVQLVESGGGLVQAGGSLRLSCAASGSIFYYNAMGWYRQAPGKESELVAASSRRVGNTYYADSVKGRFTISRDNAKNTVYLQMNSLKPEDTAVYYCNTDRSSRPSYDYWGQGTQVTVSS | high polyreactivity
35 | QVQLVESGGGLVQAGGSLRLSCAASGSIFYYNTMGWYRQAPGKERELVAGISWGGGRTYYADSVKGRFTISRDNAKNTVYLQMNSLKPEDTAVYYCNARHRRLPSNGGYDYWGQGTQVTVSS | high polyreactivity
36 | QVQLVESGGGLVQAGGSLRLSCAASGSIFYYYAMGWYRPAPGKEWELVAAISSTVSTNYADSVKGRFTISRDNAKNTVYLQMNSLKPEDTAVYYCAAAQRVNHVWYDYWGQGTQVTVSS | low polyreactivity
37 | QVQLVESGGGLVQAGGSLRLSCAASGSIFYYYAMGWYRQAPGKEREFVATIRRSGASTYYADSVKGRFTISRDNAKNTVYLQMNSLKPEDTAVYYCNAASARRPIYEAARWSKYDYWGQGTQVTVSS | low polyreactivity
38 | QVQLVESGGGLVQAGGSLRLSCAASGSIFYYYAMGWYRQAPGKERELVAAINGGDTYYADSVKGRFTISRDNAKNTVYLQMNSLKPEDTAVYYCAAEGVTVEWDYDYWGQGTQVTVSS | low polyreactivity
39 | QVQLVESGGGLVQAGGSLRLSCAASGSIFYYYAMGWYRQAPGKERELVAAISSTGGSTYYADSVKGRFTISRDNAKNTVYLQMNSLKPEDTAVYYCAAYHYGSNVFYFDYWGQGTQVTVSS | low polyreactivity
40 | QVQLVESGGGLVQAGGSLRLSCAASGSIFYYYAMGWYRQAPGKERELVAANDFGGGSTYYADSVKGRFTISRDNAKNTVYLQMNSLKPEDTAVYYCAARTFKDAGSAYGSWGQGTQVTVSS | high polyreactivity
41 | QVQLVESGGGLVQAGGSLRLSCAASGSIFYYYAMGWYRQAPGKERELVASITSGARTNYADSVKGRFTISRDNAKNTVYLQMNILKPEDTAVFYCAADIKWSIRRAYDYWGQGTQVTVSS | high polyreactivity
42 | QVQLVESGGGLVQAGGSLRLSCAASGSIFYYYAMGWYRQAPGKERELVATITSGGTTYYADSVKGRFTISRDNAKNTVYLQMISLKPEDTAVYYCAKRVKYHLYWGQGTQVTVSS | low polyreactivity
43 | QVQLVESGGGLVQAGGSLRLSCAASGSIFYYYVMGWYRQAPGKERELVAAISSGGGTNYADSVKGRFTISRDNAKNTVYLQMNSLKPEDTAVYYCANASAYGLANDYDYWGQGTQVTVSS | low polyreactivity
